Numbering of substitutions follows the chain as printed.

The labels stand for the following.
T1: CD25 (Homo sapiens, UniProt P01589)
T1 sequence (P01589 22-272): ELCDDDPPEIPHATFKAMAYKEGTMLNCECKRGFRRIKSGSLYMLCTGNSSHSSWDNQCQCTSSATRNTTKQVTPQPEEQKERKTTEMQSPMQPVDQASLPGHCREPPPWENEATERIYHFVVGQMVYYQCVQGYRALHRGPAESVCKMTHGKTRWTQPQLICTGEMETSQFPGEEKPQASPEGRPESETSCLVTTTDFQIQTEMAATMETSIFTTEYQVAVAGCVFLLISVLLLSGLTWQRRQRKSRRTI

B1: YU389-A03: anti-CD25 scFv clone, SEQ ID NO: 730 (protein, listed as Mus musculus)
scFv: PSQTLSLTCTVSGGSISSGGYYWSWIRQHPGKGLEWIGYIYYSGSTYYNPSLKSRVTISVDTSKNQFSLKLSSVTAADTAVYYCARGNLWSGYYFWGQGTLVTVSSCARGNLWSGYYFWQSVLTQPPSVSAAPGQKVTISCSGSSSNIGNNFVSWYQQVPGTAPKLLTYDSTKRPAGIPDRFSGSKSGTSATLEIAGLQTGDEADYYCGSWDTNLSGYVFGTGTKVTVLCGSWDTNLSGYVF
B2: YU392-B11: anti-CD25 scFv clone, SEQ ID NO: 750 (protein, listed as Mus musculus)
scFv: PGATVKISCKVSGYTFTDYYMHWVQQAPGKGLEWMGLVDPEDGETIYAEKFQGRVTITADTSTDTAYMELSSLRSEDTAVYYCAVEGGRAPGTYYYDSSGLAYWGQGTLVTVSSCAVEGGRAPGTYYYDSSGLAYWQAGLTQPPSASGTPGQRVTISCSGSSSNIGSNYVYWYQQLPGTAPKLLIYSNNQRPSGVPDRFSGSKSGTSASLAISGLRSEDEADYYCATWDDSLSGVVFGGGTKLTVLCATWDDSLSGVVF
B3: YU401-G07: anti-CD25 scFv clone, SEQ ID NO: 831 (protein, listed as Mus musculus)
scFv: LGRSLRLSCAASGFTFSSYGMHWVRQAPGKGLEWVAVISYDGSNKYYADSVKGRFTISRDNSKNTLYLQMNSLRAEDTAVYYCAKGDVNYGMDVWGQGTTVTVSSCAKGDVNYGMDVWSYVLTQPPSVSVAPGQTARISCGGSNIGSKTVNWYRKKAGQAPVLVVYDGRDRPSGIPERFSGSNSGNAATLIISRVEVGDEADYYCQVWDTSGDLHWAFGGGTKLTVLCQVWDTSGDLHWAF
B4: YU401-B01: anti-CD25 scFv clone, SEQ ID NO: 827 (protein, listed as Mus musculus)
scFv: PGSSVKVSCKASGGTFSSYAISWVRQAPGQGLEWMGGIIPIFGTANYAQKFQGRVTITADESTSTAYMELSSLRSEDTAVYYCAREMYYYYGMDVWGQGTTVTVSSCAREMYYYYGMDVWDIVMTQSPSSLSASVGDRVTITCRASQSIITYLNWYQQKPGKVPKLLIYAASSLQSGVPSRFSGSGSGTDFTLTISSLQPEDFATYYCQQSYSTPPTFGQGTKLEIKCQQSYSTPPTF
B5: YU390-A11: anti-CD25 scFv clone, SEQ ID NO: 736 (protein, listed as Mus musculus)
scFv: PGRSLRLSCAASGFTFSSYGMHWVRQAPGKGLEWVAVISYDGSNKYYADSVKGRFTISRDNSKNTLYLQMNSLRAEDTAVYYCAKELLEGAFDIWGQGTMVTVSSCAKELLEGAFDIWSYVLTQPPSLSVAPGQTARITCGGDNIETKSVHWYQQRPGQAPVLVVYDDDDRPSGIPERFSGSNSGNTATLTISRVEAGDEADYYCQVWDSSSGHREVFGGRTKPALLCQVWDSSSGHREVF
B6: YU390-B12: anti-CD25 scFv clone, SEQ ID NO: 738 (protein, listed as Mus musculus)
scFv: B5 scFv with R221G, P224L, A225T, L226V
B7: YU403-G05: anti-CD25 scFv clone, SEQ ID NO: 835 (protein, listed as Mus musculus)
scFv: PSGDLSLTCDVSGGSISRSNWWIWVRQPPGKGLEWIGEIYHTGSTNYNPSLKRRVTISVDKSKNQFSLNLSSVTAADTAVYYCARGKGSYAFDIWGLGTMVTVSSCARGKGSYAFDIWVLTQPHSVSESPGKTVTISCTGSGGNIARNYVQWYQHRPGRAPSTVIYEDDRRPSGVPDRFSGSTDISSNSASLTISGLKTEDEADYYCQSYDGNNHMVFGGGTRVTVLCQSYDGNNHMVF
B8: YU398-A11: anti-CD25 scFv clone, SEQ ID NO: 818 (protein, listed as Mus musculus)
scFv: PGRSLRLSCAASGFTFSSYGMHWVRQAPGKGLEWVAVISYDGSNKYYADSVKGRFTISRDNSKNTLYLQMNSLRAEDTAVYYCAKGQGDGMDVWGQGTTVTVSSCAKGQGDGMDVWYELTQPPSASGTPGQRVTISCSGSSSNVGSRTVSWFQQLPGTAPKLLIYSNNLRPSGVPDRFSGSKSGTSASLAISGLQSEDEADYYCAAWDDSLIGHVFGTGTKVTVVCAAWDDSLIGHVF
B9: YU397-D01: anti-CD25 scFv clone, SEQ ID NO: 817 (protein, listed as Mus musculus)
scFv: PSGTLSLTCAVSGGSISSSNWWSWVRQPPGKGLEWIGEIYHSGSTNYNPSLKSRVTISVDKSKNQFSLKLSSVTAADTAVYYCARARGGRYFDYWGQGTLVTVSSCARARGGRYFDYWDIVLTQSPSFLSASVGDRVTITCRASQGISTYLAWYQQKPGTAPKVLMYAASTLHSGVPSRFSGSGSGTEFTLTISSLQPEDFAIYYCQQLNGYPTTFGGGTRVEIKCQQLNGYPTTF
B10: YU392-A09: anti-CD25 scFv clone, SEQ ID NO: 749 (protein, listed as Mus musculus)
scFv: PGATVKISCKVSGYTFTDYYMHWVQQAPGKGLEWMGLVDPEDGETIYAEKFQGRVTITADTSTDTAYMELSSLRSEDTAVYYCATEGRYGMDVWGQGTTVTVSSCATEGRYGMDVWQAVLTQPPSVSGTPGQRVTISCSGNNFNIGNNLVYWYQQLPGTAPKLLIYANDERPSGVPDRFSGSKSGTSASLAISGLRSEDDADYYCATWDDSLSGVVFGGGTKLTALCATWDDSLSGVVF
B11: YU400-B07: anti-CD25 scFv clone, SEQ ID NO: 822 (protein, listed as Mus musculus)
scFv: PGRSLRLSCAASGFTFSSYGMHWVRQAPGKGLEWVAVISYDGSNKYYADSVKGRFTISRDNSKNTLYLQMNSLRAEDTAVYYCAKGDVNYGMDVWGQGTTVTVSSCAKGDVNYGMDVWSYVLTQPPSVSVAPGKTARITCGGNNIGSKSVHWYQQKPGQAPVLVVYDDTDRPSGIPERFSGSNSGNTATLTISRVEAGDEADYYCQVWDSSSDLLWVFGGGTKLAVLCQVWDSSSDLLWVF
B12: YU400-D09: anti-CD25 scFv clone, SEQ ID NO: 823 (protein, listed as Mus musculus)
scFv: PGSSVKVSCKASGGTFSSYAISWVRQAPGQGLEWMGGIIPIFGTANYAQKFQGRVTITADESTSTAYMELSSLRSEDTAVYYCARDFNPFSITIFEMDVWGQGTTVTVSSCARDFNPFSITIFEMDVWQSVLTQPPSVSAAPGQKVTISCSGSSSNIGNNYVSWYQQLPGTAPKLLIYDNNKRPSGIPDRFSGSKSGTSATLGITGLQTGDEADYYCGTWDSSLSALVFGGGTKLTVLCGTWDSSLSALVF

The experiment addresses T1, CD25. Description: Binding of human IgG1 format antibodies to CD25 by Octet. Conditions: read-out: Biosensor Measured CD25 Affinity. The source says: Thirty antibodies were selected for additional testing as full-length immunoglobulins. The heavy and light chain sequences were cloned into human immunoglobulin G (IgG1) format and expressed and purified.
In general terms: Biolayer interferometry detects binding as a change in optical thickness at a sensor tip.
Regarding B1, the Kd was 9.55 nM.

For B2, the Kd came out at 65.6 nM. Turning to B3, the Kd amounted to 15.3 nM. Turning to B4, the Kd was 70.4 nM. Under B5 stands 13.3 nM; under B6, 13.7 nM; under B7, 31.9 nM. The value for B8 was 12.1 nM; that for B9 was 3.86 nM; that for B10 was 12.4 nM. In the case of B11, the Kd came out at 57.8 nM. The value for B12 was 54.6 nM.

The values are drawn from patent US12441803B2, “Engineered CD25 polypeptides and uses thereof” (iBio, Inc., priority 2018, dated 2025).
